The results in this text go back to the Immune Epitope Database (IEDB).

The target in one assay is HLA-C*14:02. Put plainly: IEDB peptide-MHC binding, purified MHC/direct/fluorescence; filed as Kd, often an IC50 or EC50 that approximates it; ≥ and ≤ were set here for values at or beyond the usual limits of such assays.
Another assay has as its target HLA-A*69:01. Described as above.
Assay [1] concerns the target HLA-A*02:01. The assay is described as above.
In the next assay the target is HLA-A*31:01. The description is as above.
Assay [2] deals with HLA-B*07:02. Put plainly: IEDB peptide-MHC binding, purified MHC/competitive/fluorescence; filed as Kd, often an IC50 or EC50 that approximates it; ≥ and ≤ were set here for values at or beyond the usual limits of such assays.
The target of assay [3] is HLA-A*02:01. Put plainly: IEDB peptide-MHC binding, purified MHC/competitive/radioactivity; ≥ and ≤ were set here for values at or beyond the usual limits of such assays.
For another assay, the target named is HLA-C*12:03. Put plainly: IEDB peptide-MHC binding, purified MHC/direct/fluorescence; filed as Kd, often an IC50 or EC50 that approximates it; ≥ and ≤ were set here for values at or beyond the usual limits of such assays.
The target of a further assay is HLA-C*06:02. Described as above.
A further assay deals with HLA-C*15:02. The assay is described as above.
For assay [4], the target named is HLA-B*27:05. Briefly: IEDB peptide-MHC binding, purified MHC/competitive/fluorescence; filed as Kd, often an IC50 or EC50 that approximates it; ≥ and ≤ were set here for values at or beyond the usual limits of such assays.
Assay [5] has as its target HLA-B*40:01. The assay is described as above.
In assay [6] the target is HLA-B*46:01. Put plainly: IEDB peptide-MHC binding, purified MHC/direct/fluorescence; filed as Kd, often an IC50 or EC50 that approximates it; ≥ and ≤ were set here for values at or beyond the usual limits of such assays. The note with it: source organism: Lake Victoria marburgvirus - Popp.
In the next assay the target is HLA-B*08:01. The description is as above. The note with it: source organism: Orthomarburgvirus marburgense.
Assay [7] deals with HLA-B*07:02. Described as above. The note with it: source organism: Lake Victoria marburgvirus - Popp.
The target of the next assay is HLA-A*26:01. Described as above. The note with it: source organism: Orthomarburgvirus marburgense.
Another assay concerns the target HLA-A*68:02. The description is as above. The note with it: source organism: Lake Victoria marburgvirus - Popp.
A further assay has as its target HLA-B*15:17. The description is as above. The note with it: source organism: Lake Victoria marburgvirus - Popp.
For a further assay, the target named is HLA-B*58:01. The assay is described as above. The note with it: source organism: Lake Victoria marburgvirus - Popp.
For the next assay, the target named is HLA-A*01:01. The assay is described as above. The note with it: source organism: Lake Victoria marburgvirus - Popp.
The target in another assay is HLA-A*03:01. Described as above. The note with it: source organism: Lake Victoria marburgvirus - Popp.
Another assay deals with HLA-A*11:01. Described as above. The note with it: source organism: Lake Victoria marburgvirus - Popp.
In assay [8] the target is HLA-B*40:01. The description is as above. The note with it: source organism: Lake Victoria marburgvirus - Popp.
The next assay concerns the target HLA-B*57:01. The description is as above. The note with it: source organism: Lake Victoria marburgvirus - Popp.
The target in assay [9] is HLA-B*15:01. The description is as above. The note with it: source organism: Lake Victoria marburgvirus - Popp.
The target of the next assay is HLA-B*48:01. The description is as above. The note with it: source organism: Lake Victoria marburgvirus - Popp.
The target of assay [10] is HLA-B*27:05. The description is as above. The note with it: source organism: Lake Victoria marburgvirus - Popp.
The next assay has as its target HLA-B*08:03. Described as above. The note with it: source organism: Orthomarburgvirus marburgense.
In another assay the target is HLA-A*26:02. Briefly: IEDB peptide-MHC binding, purified MHC/competitive/fluorescence; filed as Kd, often an IC50 or EC50 that approximates it; ≥ and ≤ were set here for values at or beyond the usual limits of such assays. The note with it: source organism: Orthomarburgvirus marburgense.
Another assay concerns the target HLA-A*02:06. Described as above. The note with it: source organism: Orthomarburgvirus marburgense.
The next assay addresses HLA-A*02:03. Put plainly: IEDB peptide-MHC binding, purified MHC/direct/fluorescence; filed as Kd, often an IC50 or EC50 that approximates it; ≥ and ≤ were set here for values at or beyond the usual limits of such assays. The note with it: source organism: Variola virus.
The target in another assay is HLA-C*05:01. Described as above.
In a further assay the target is HLA-C*03:03. Described as above.
The next assay deals with HLA-B*35:01. Briefly: IEDB peptide-MHC binding, purified MHC/competitive/fluorescence; filed as Kd, often an IC50 or EC50 that approximates it; ≥ and ≤ were set here for values at or beyond the usual limits of such assays. The note with it: source organism: Camelpox virus M-96.
Assay [11] deals with HLA-B*15:01. The description is as above. The note with it: source organism: Escherichia coli O139:H28 str. E24377A.
The next assay addresses HLA-B*39:01. The assay is described as above.
For a further assay, the target named is HLA-A*23:01. Put plainly: IEDB peptide-MHC binding, purified MHC/direct/fluorescence; filed as Kd, often an IC50 or EC50 that approximates it; ≥ and ≤ were set here for values at or beyond the usual limits of such assays. The note with it: source organism: Vibrio cholerae.
The target of the next assay is HLA-A*24:03. The description is as above. The note with it: source organism: Vibrio cholerae.
In another assay the target is HLA-C*07:02. Described as above. The note with it: source organism: Vibrio cholerae AM-19226.
Assay [12] addresses HLA-B*46:01. Put plainly: IEDB peptide-MHC binding, purified MHC/competitive/fluorescence; filed as Kd, often an IC50 or EC50 that approximates it; ≥ and ≤ were set here for values at or beyond the usual limits of such assays. The note with it: source organism: Vibrio cholerae AM-19226.
The next assay concerns the target HLA-B*45:06. The assay is described as above. The note with it: source organism: Mycobacterium tuberculosis C.
For another assay, the target named is HLA-B*83:01. Described as above. The note with it: source organism: Mycobacterium tuberculosis C.
In another assay the target is HLA-B*15:42. Described as above. The note with it: source organism: Mycobacterium tuberculosis C.
The mark [13] stands for this setting: source organism: Pseudomonas aeruginosa.
[14] abbreviates: source organism: Rickettsia massiliae MTU5.
The mark [15] stands for this setting: source organism: Mycobacterium tuberculosis H37Ra.
Setting [16] is: source organism: Lake Victoria marburgvirus - Popp.
The mark [17] stands for this setting: source organism: Camelpox virus M-96.
[18] abbreviates: source organism: Camelpox virus CMS.
[19] abbreviates: source organism: Escherichia coli O139:H28 str. E24377A.
The mark [20] stands for this setting: source organism: Vibrio cholerae AM-19226.

Take AYFATPASV: the Kd with HLA-C*14:02 (source organism: Pseudomonas aeruginosa 2192) was at most 1 nM; in the assay with HLA-A*69:01 (setting [13]), 4370 nM; with HLA-A*02:01 [1] (setting [13]), 2270 nM; in the assay with HLA-A*31:01 (setting [13]) it was 207 nM.
Consider EIRTFSFQL, for which, in the assay with HLA-B*07:02 [2] (source organism: Influenza A virus (A/duck/England/1/1956(H11N6))), the Kd was at least 20000 nM.
In the case of FLPVDFFPSI, in the assay with HLA-A*02:01 [3] (source organism: Hepatitis B virus), the IC50 amounted to 35 nM.
Turning to FMRFAFLSM, the figures for the Kd with HLA-C*12:03 (setting [14]), with HLA-C*06:02 (setting [14]) and with HLA-C*15:02 (setting [14]) were 894 nM, at least 20000 nM and at least 20000 nM, respectively.
As for FRWTQSLRR, the Kd with HLA-B*27:05 [4] (source organism: Mammarenavirus machupoense) stood at 39.8 nM.
As for GEDAKLIAV, the Kd with HLA-B*40:01 [5] (source organism: Escherichia coli 536) is 3.8 nM.
As to GLIDIAPHQISS, the IC50 with HLA-A*02:01 [3] (setting [15]) was 173 nM.
With HMTEVVRRC, the IC50 with HLA-A*02:01 [3] (source organism: Homo sapiens) was 10200 nM.
As for ILDAHSLYL, the IC50 with HLA-A*02:01 [3] (source organism: Rift Valley fever virus) worked out at 1.3 nM.
In the assay with HLA-C*14:02 (source organism: Taterapox virus), KINIFMAFL registered a Kd of at least 20000 nM.
KNYPASLHK: the Kd with HLA-B*46:01 [6], with HLA-B*08:01, with HLA-B*07:02 [7], with HLA-A*26:01, with HLA-A*68:02 and in the assay with HLA-B*15:17 was at least 20000 nM in each case. The Kd was at least 20000 nM with HLA-B*58:01; at least 20000 nM in the assay with HLA-A*01:01; 102 nM with HLA-A*03:01; 91.7 nM in the assay with HLA-A*11:01; at least 20000 nM with HLA-B*40:01 [8]; at least 20000 nM in the assay with HLA-A*02:01 [1] (setting [16]). In addition, the Kd in the assay with HLA-B*57:01, with HLA-A*31:01 (setting [16]), in the assay with HLA-B*15:01 [9], with HLA-B*48:01, in the assay with HLA-B*27:05 [10] and with HLA-B*08:03 was at least 20000 nM throughout. In addition, the dissociation constant (Kd) in the assay with HLA-A*26:02 was at least 20000 nM; with HLA-A*02:06, 627 nM.
Regarding LMDENTYAM, the Kd with HLA-A*02:03 was 20 nM; with HLA-C*12:03 (setting [17]), at least 20000 nM; with HLA-C*05:01 (setting [17]), 7 nM; with HLA-A*69:01 (setting [18]) it was 57.8 nM; with HLA-A*02:01 [1] (setting [18]) it was at most 1 nM; in the assay with HLA-C*03:03 (setting [17]), 592 nM. The same sequence came in with a dissociation constant (Kd) in the assay with HLA-B*35:01 of 0.2 nM.
For RQGWARAML, the Kd in the assay with HLA-B*40:01 [5] (setting [19]) is 313 nM; in the assay with HLA-B*15:01 [11] it was 143 nM; with HLA-B*39:01 (setting [19]) it was at least 20000 nM; in the assay with HLA-B*27:05 [4] (setting [19]), 191 nM.
For the sequence SPYNSRFESV, the Kd with HLA-B*07:02 [2] (source organism: Influenza A virus) was 3.4 nM.
Take VLMAVVLASL: the IC50 in the assay with HLA-A*02:01 [3] (source organism: Homo sapiens) is 45.7 nM.
Consider YALPSAGAF, for which the Kd in the assay with HLA-A*23:01 is 445 nM; in the assay with HLA-C*14:02 (setting [20]), 46 nM; in the assay with HLA-C*15:02 (setting [20]), 386 nM; with HLA-C*03:03 (setting [20]), at most 1 nM; in the assay with HLA-A*24:03 it was 290 nM; with HLA-C*07:02 it was 404 nM. For the same sequence, the equilibrium dissociation constant (Kd) with HLA-B*46:01 [12] stood at 34.5 nM.
Turning to YPRNGWPAL, the Kd in the assay with HLA-C*05:01 (source organism: Mycobacterium tuberculosis C) is at least 20000 nM; with HLA-B*45:06, at least 5000 nM; with HLA-B*83:01 it was 34.9 nM; with HLA-B*15:42 it was at least 5000 nM.
YQERFVLAL: the Kd with HLA-B*39:01 (setting [15]) was 1.7 nM; in the assay with HLA-B*27:05 [4] (setting [15]), 946 nM.
Consider YRYSLSSDL, for which the Kd in the assay with HLA-C*06:02 (source organism: Vaccinia virus WR) turned out to be 4 nM.
